Values of other authors as cited in publication PMC3408481.

Tests used:
VIP (Homo sapiens) = VIP (Homo sapiens) (UniProt P01282)
PACAP (Homo sapiens) = PACAP (Homo sapiens) (UniProt P18509)
Chain of UniProt P18509 (P18509 82-129): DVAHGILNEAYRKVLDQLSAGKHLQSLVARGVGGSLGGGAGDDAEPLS

Chain of UniProt P01282 (P01282 125-152): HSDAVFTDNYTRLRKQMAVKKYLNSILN

## PAC1 receptor (from UniProt P41586)
VIP (Homo sapiens)
  Kd: 500 nM
PACAP (Homo sapiens)
  Kd: 0.5 nM
